Laboratory results: publication PMC10599522

target: T1, 6his-GSU1771 (Geobacter sulfurreducens (DL1 wild-type background)) (UniProt Q74CA3); test: EMSA; conditions: 40 mM HEPES, 8 mM MgCl2, 50 mM KCl, 1 mM DTT, 0.05% NP-40, 0.1 mg/ml BSA, 20 ul, 30 C 30 min, pH not stated; 100 ng of each fragment; 6% native PAGE in 0.5X …
T1 sequence: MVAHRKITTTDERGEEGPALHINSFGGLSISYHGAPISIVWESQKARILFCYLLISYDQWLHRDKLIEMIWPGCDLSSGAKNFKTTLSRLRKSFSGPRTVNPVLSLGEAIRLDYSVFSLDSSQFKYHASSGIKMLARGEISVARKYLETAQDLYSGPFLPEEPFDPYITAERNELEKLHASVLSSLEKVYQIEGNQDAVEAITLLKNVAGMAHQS

Sequence	binding
ACCATCTTCGCATCCCTGTGGAGGATCTCTGCTTTTCCTGCCACGACCGATAGCAGTGACTATTGTGTTGTGGTGGGTGTGTTGTGATGGTGTTGCGGTCATGTTTCTGCTTGTTTTTATTTTTAATTTTACCCATTTTGTGCTAAGAAAATCTAATGGCCCTATACCACTGTAAGCTCGGCTCCTCGGAG (double strand) [pulF promoter]	binds
CGCTGGATCTCCTGAAAGGGTGGGAAATCCTGAAAACAATAAGCAAATGAGAGGATGACTTACGCCAAAAGGGGGGGCTCGGGCCCCCCCTTTTTTTATGTAAATCCGATAAGTTCTATATTTGTATTGACACTCCCGTAACGATGTAGTATTCAGTAGGTAAATTAATCACAGTTAAGGTAAGGGTGTATCGCG (double strand) [gsu1771 promoter]	binds
AGGCTTGCTCGTCTCATGTCGCGCCGCCGTGGGAAAAAGTAGTAACCAGTAGTATATCATTTCGTCACCGTGGTTTCATTGCTTGAGCTTTTTTGCATCCGAAGCGACTCCAGCCTGTGCCCTCCGGCAATAAACCGCTTTTCCCCCGCCGGTGATGGTGGTACTCTCCTCCCATTTCGCGGAGGATGGAGTGCATGGAT (double strand) [gsu3356 promoter]	binds
GTGGTATTCATGCACGTATTCTAATGACGGCCCGCAACCCAGGTGGAGCCGTCATCCTTTTTTTCGGATATACTGCCTGGATTCACGACTGAACCGGGACGGAAGGCAATAGCCGCACCGACGAGGATAGGATGAGCTTTCCCTTC (double strand) [gsu1704-gsu1705 intergenic region]	no binding
